{"source": "paper PMC5577365", "about": "(Nature chemical biology, 2017)", "key": {"[1]": {"target": "Abl1-Pmp52 (ABL1 SH3 domain with Pmp at position 52) (human, 4-phosphomethyl-L-phenylalanine (Pmp) at position 52)", "test": "fluorescence polarisation"}, "[2]": {"target": "wild-type Abl1 (ABL1 SH3 domain) (human, UniProt P00519 61-121)", "sequence (P00519 whole entry, looked up, the tested form may be a part)": "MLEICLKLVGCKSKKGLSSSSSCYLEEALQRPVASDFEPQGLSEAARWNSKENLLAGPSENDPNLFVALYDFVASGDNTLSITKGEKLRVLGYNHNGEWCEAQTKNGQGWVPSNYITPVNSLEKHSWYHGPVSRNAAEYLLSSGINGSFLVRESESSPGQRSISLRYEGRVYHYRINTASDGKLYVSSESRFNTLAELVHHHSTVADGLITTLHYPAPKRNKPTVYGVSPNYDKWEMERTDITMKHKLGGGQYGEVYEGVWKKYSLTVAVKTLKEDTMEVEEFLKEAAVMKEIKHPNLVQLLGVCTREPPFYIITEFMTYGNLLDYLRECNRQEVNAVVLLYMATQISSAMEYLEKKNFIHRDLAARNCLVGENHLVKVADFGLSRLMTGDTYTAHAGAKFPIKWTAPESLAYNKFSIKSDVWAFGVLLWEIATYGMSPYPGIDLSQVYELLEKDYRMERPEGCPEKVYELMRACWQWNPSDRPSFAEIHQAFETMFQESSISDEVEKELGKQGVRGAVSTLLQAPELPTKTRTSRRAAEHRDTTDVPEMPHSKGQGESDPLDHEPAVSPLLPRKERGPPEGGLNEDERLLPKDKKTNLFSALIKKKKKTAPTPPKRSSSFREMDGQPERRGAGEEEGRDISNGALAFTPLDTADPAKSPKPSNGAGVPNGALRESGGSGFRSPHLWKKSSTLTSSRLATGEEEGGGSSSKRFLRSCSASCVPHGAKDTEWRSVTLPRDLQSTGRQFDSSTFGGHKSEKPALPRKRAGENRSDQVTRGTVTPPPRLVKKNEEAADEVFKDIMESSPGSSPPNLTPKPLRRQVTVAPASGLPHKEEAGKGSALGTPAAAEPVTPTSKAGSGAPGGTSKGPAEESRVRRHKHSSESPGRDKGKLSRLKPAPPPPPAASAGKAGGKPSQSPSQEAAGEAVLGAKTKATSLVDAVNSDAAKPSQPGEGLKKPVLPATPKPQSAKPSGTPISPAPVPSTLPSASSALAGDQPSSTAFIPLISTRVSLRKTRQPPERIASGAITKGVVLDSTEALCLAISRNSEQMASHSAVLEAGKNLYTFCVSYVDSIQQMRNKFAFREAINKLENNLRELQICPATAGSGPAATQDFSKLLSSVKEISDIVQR", "test": "fluorescence polarisation"}}, "note": "Ends that are not written are not given here.", "data": [{"binder": "PPAYPPPPVP (also: FAM label, position not given here)", "note": "[3BP2 peptide (FAM labeled)]", "values": [{"measurement": "Kd", "setting": "[1]", "result": "5 ± 0.8", "unit": "µM"}, {"measurement": "Kd", "setting": "[2]", "result": "5 ± 0.8", "unit": "µM"}]}]}
